Target: ER-DEVD-Luc (mouse; firefly)
Assay: cell-based or functional assay

caspase-3 (from UniProt P42574 29-277)
cleavage of the 90 kDa fusion to a 60 kDa polypeptide (western blot, 293T cells treated with staurosporine): 50%
